Assays:
Assay in all cases: mass photometry; Refeyn OneMP; purified complexes diluted in 20 mM MES pH 6.5, 150 mM NaCl to around 25 nM
Conditions in all cases: both partners purified
[1] = molecular target: T1, Chondroitin Sulfate Synthase-1 (CHSY1), secreted N-terminally truncated construct aa68-aa802 (human, UniProt Q86X52 68-802)
T1 construct: CHSY1, human, UniProt Q86X52, residues 68-802 (membrane-spanning helix removed); Construct in pHR-CMV-TetO2 with an N-terminal chicken RPTP sigma signal peptide, SUMO, 6x His and a 3C site; no cleavage site before the C-terminal Avi tag; source: Freestyle 293-F cells, co-transfected, secreted; purified from the supernatant (HisTrap, 3C protease, second HisTrap); not shown: SUMO, N-terminal, …
T1 sequence (looked up): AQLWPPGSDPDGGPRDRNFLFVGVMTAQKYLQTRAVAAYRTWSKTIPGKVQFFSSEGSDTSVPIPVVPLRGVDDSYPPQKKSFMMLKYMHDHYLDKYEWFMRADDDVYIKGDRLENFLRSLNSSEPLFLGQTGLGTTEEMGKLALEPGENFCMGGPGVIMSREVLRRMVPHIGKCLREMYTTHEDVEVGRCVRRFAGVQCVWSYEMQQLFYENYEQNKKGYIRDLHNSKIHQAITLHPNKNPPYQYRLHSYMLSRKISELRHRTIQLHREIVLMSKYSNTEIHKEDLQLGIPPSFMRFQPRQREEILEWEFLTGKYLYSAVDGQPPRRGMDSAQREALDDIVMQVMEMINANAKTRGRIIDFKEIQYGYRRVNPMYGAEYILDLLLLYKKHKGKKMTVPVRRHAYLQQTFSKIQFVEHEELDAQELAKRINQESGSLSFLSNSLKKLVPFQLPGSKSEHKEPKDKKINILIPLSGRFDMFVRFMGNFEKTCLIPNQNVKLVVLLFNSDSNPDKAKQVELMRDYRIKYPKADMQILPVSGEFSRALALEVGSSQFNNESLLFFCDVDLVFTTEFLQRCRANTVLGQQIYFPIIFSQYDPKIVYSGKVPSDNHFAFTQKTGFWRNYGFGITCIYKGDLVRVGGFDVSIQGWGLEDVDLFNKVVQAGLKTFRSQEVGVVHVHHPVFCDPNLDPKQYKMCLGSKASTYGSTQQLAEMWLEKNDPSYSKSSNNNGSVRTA

[2] = molecular target: T2, CHSY3^D261N/D263N, secreted construct aa157-aa882 (human, UniProt Q70JA7 157-882, D261N | D263N)
T2 construct: CHSY3, human, UniProt Q70JA7, residues 157-882, mutations in the DxD motif of the N-terminal GT domain; source: Freestyle 293-F cells, co-transfected with CHPF, secreted; purified by the same protocol as the wild-type complexes; not shown: SUMO, N-terminal, cleaved; His6, N-terminal, cleaved
T2 sequence (looked up): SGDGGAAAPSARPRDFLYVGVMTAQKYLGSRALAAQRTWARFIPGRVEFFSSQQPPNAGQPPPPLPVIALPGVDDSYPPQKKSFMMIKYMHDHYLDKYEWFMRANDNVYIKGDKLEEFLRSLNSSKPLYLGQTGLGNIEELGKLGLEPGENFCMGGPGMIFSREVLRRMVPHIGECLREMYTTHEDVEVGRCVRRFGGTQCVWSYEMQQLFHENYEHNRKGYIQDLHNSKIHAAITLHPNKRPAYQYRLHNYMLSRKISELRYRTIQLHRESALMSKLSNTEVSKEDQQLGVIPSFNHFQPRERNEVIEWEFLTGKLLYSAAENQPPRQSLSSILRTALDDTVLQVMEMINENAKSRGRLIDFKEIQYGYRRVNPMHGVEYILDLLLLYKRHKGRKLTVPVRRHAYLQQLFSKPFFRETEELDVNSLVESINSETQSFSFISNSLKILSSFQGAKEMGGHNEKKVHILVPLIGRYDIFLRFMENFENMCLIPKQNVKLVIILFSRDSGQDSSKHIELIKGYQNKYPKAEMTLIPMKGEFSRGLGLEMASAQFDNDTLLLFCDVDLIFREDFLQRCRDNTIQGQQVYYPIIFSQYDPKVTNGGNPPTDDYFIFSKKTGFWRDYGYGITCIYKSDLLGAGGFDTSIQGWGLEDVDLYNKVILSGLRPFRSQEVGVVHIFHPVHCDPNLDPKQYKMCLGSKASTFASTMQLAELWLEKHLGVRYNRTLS

[3] = molecular target: T3, CHSY3^H394A, secreted construct aa157-aa882 (human, UniProt Q70JA7 157-882, H394A)
T3 construct: CHSY3, human, UniProt Q70JA7, residues 157-882, mutation in the N-terminal GT domain; source: Freestyle 293-F cells, co-transfected with CHPF, secreted; purified by the same protocol as the wild-type complexes; not shown: SUMO, N-terminal, cleaved; His6, N-terminal, cleaved
T3 sequence (looked up): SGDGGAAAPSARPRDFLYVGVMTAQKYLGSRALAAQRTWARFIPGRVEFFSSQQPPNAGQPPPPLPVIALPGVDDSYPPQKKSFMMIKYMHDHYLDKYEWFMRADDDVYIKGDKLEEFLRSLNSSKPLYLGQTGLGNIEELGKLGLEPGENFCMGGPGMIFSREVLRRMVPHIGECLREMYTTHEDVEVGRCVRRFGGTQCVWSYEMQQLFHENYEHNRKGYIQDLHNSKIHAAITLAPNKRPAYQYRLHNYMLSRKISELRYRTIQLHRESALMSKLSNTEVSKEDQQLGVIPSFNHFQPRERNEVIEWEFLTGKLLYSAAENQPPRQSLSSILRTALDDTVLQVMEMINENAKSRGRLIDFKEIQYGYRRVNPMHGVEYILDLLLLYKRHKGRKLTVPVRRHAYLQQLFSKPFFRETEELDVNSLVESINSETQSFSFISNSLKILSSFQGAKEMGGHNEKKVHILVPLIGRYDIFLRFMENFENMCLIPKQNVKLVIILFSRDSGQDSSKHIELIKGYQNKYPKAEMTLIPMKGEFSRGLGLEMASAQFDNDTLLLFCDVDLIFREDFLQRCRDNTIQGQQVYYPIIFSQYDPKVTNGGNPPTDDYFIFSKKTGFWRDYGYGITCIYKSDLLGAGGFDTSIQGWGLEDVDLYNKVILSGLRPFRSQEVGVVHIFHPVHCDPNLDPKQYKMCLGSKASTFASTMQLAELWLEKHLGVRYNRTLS

binding result [1]: binds
binding result [2]: binds
binding result [3]: binds
B1: Chondroitin Polymerizing Factor (CHPF), secreted N-terminally truncated construct aa81-aa775 (domain or fragment, human, UniProt Q8IZ52 81-775, looked up)
chain: GENWEPRVLPYHPAQPGQAAKKAVRTRYISTELGIRQRLLVAVLTSQTTLPTLGVAVNRTLGHRLERVVFLTGARGRRAPPGMAVVTLGEERPIGHLHLALRHLLEQHGDDFDWFFLVPDTTYTEAHGLARLTGHLSLASAAHLYLGRPQDFIGGEPTPGRYCHGGFGVLLSRMLLQQLRPHLEGCRNDIVSARPDEWLGRCILDATGVGCTGDHEGVHYSHLELSPGEPVQEGDPHFRSALTAHPVRDPVHMYQLHKAFARAELERTYQEIQELQWEIQNTSHLAVDGDQAAAWPVGIPAPSRPASRFEVLRWDYFTEQHAFSCADGSPRCPLRGADRADVADVLGTALEELNRRYHPALRLQKQQLVNGYRRFDPARGMEYTLDLQLEALTPQGGRRPLTRRVQLLRPLSRVEILPVPYVTEASRLTVLLPLAAAERDLAPGFLEAFATAALEPGDAAAALTLLLLYEPRQAQRVAHADVFAPVKAHVAELERRFPGARVPWLSVQTAAPSPLRLMDLLSKKHPLDTLFLLAGPDTVLTPDFLNRCRMHAISGWQAFFPMHFQAFHPAVAPPQGPGPPELGRDTGRFDRQAASEACFYNSDYVAARGRLAAASEQEEELLESLDVYELFLHFSSLHVLRAVEPALLQRYRAQTCSARLSEDLYHRCLQSVLEGLGSRTQLAMLLFEQEQGNST
notes: CHPF, human, UniProt Q8IZ52, residues 81-775 (membrane-spanning helix removed); Construct in pHR-CMV-TetO2 with an N-terminal chicken RPTP sigma signal peptide, SUMO, 6x His and a 3C site; a second 3C site stands before the C-terminal twin streptavidin tag; also called Chondroitin sulfate synthase 2; source: Freestyle 293-F cells, co-transfected, secreted; purified from the supernatant (HisTrap, …)
